Measured values taken from patent US20200277373A1, “ANTI-TREM2 ANTIBODIES AND METHODS OF USE THEREOF” (Denali Therapeutics Inc., priority 2017, published 2020).

Legend:
soluble TREM2 (sTREM2) = target: T1, soluble TREM2 (sTREM2) (Homo sapiens, UniProt Q9NZC2); test: Soluble TREM2 (TREM2 shedding) assay in HEK293 TREM2/DAP12 cells; assay type: cell-based; set-up: key to STREM2: NC = no change; −− = reduced sTREM2; ++ = increased sTREM2; conditions: for STREM2: change in sTREM2 levels
T1 construct: expressed in transfected cells
Procedure: HEK293 cells stably expressing human TREM2 and DAP12 were plated onto 96-well plates pre-coated with poly-D-lysine 4-16 hours prior to antibody treatment. Antibody supernatants or control antibodies were diluted into fresh complete media and added onto cells in triplicate. Cells were incubated with antibody containing media for 18 hours prior to removal of the cell supernatant for assay by TREM2 ELISA. Samples and standards were diluted 1:10 into blocking buffer (3% BSA/TBST) in the assay plate. Briefly, MSD small spot streptavidin plates were coated with biotinylated anti-hTREM2 polyclonal antibody (R&D Systems) overnight at 4° C. or 1 hour at room temperature. Plates were then blocked overnight at 4° C., or 1 hour at room temperature, with blocking buffer, 3% BSA/TBST. Plates were washed three times with TBST in a Biotek plate washer (used for all washes) prior to addition of diluent (blocking buffer) and denatured supernatants from cell culture. A TREM2-His protein diluted in 3% BSA/TBST was used as a standard for absolute quantification. Following 1 hour incubation at room temperature, plates were washed with TBST. The primary detection antibody, sulfo-tagged goat anti-human TREM2 (R&D Systems), diluted in 3% BSA/TBST was added and incubated for 1 hour at room temperature. After washing with TBST, MSD plates were developed using 2×MSD read buffer T, followed by detection using an MSD Sector plate reader. MSD values were converted to absolute quantities of sTREM2 by fitting a standard curve using Prism 7.0 software (Graphpad). Modulation of TREM2 shedding was represented as a ratio to cells cultured with no specific TREM2 antibody in the media.

TREM2 [1] = target: T2, TREM2 (Homo sapiens, UniProt Q9NZC2); test: TREM2 PAM/pSyk assay on human macrophages; assay type: cell-based
T2 construct: macrophage cells that endogenously express TREM2; endogenous in cells; host or cells: primary human monocyte-derived macrophages from donor blood
T2 sequence (Q9NZC2 19-230): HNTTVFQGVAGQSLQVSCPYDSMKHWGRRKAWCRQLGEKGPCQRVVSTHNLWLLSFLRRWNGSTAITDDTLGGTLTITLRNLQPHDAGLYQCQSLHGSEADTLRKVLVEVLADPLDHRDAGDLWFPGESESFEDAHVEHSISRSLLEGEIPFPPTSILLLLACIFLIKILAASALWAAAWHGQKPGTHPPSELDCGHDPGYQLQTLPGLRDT
Procedure: (§1) Human macrophages were differentiated from donor blood using a human monocyte enrichment cocktail (Stem Cell Technologies) and culturing monocytes with human mCSF for five days in macrophage media (RPMI+10% Hyclone FBS+Glutamax+Pen/Strep+non-essential amino acids+sodium pyruvate). On the fifth day, the human macrophages were scraped from the flasks and were re-plated at 100,000 cells/well on a 96-well poly-D-lysine-coated plate in the macrophage media (without mCSF). The cells were incubated for 24 hours to adhere, then the media was removed.
Antibodies pre-mixed with lipid vesicles comprised of 70% DOPC and 30% POPS (made according to the procedure for making vesicles described above) diluted in HBSS were immediately added to the cells, and allowed to incubate for 5 minutes at 37° C. The liposome/antibody solution was removed, and 35 μL lysis buffer (Cell Signaling Technologies, CST) was added using the liquid handler. The lysate was then incubated at 4° C. for 30 minutes, then either frozen at −80° C. or immediately carried forward to a pSyk AlphaLISA assay as described above. […] The results of the assay are shown in FIG. 9B and in Table 8 below.

hTREM2 = target: T3, hTREM2 (Homo sapiens, UniProt Q9NZC2); test: Octet binning (competition with R&D antibody on biotinylated TREM2-His); assay type: binding; conditions: epitope bin, 100 nM
T3 construct: The ecto domain (residues 19-172) of TREM2 (UniProtKB—Q9NZC2); secretion signal of mouse Ig kappa chain V-III (P01661 aa 1-20) (N); made in house; host or cells: Expi293F
T3 sequence (Q9NZC2 19-172): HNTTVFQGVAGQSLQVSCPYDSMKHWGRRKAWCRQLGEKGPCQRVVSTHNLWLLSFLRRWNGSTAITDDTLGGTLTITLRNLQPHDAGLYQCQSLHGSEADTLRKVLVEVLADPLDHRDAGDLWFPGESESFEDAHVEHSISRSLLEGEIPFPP
Procedure: Competition with R&D antibody was done by Octet Red using biotinylated human Trem2-His protein generated in house. Biotinylated human TREM2-His protein was captured on a streptavidin tip, and the tip was then incubated in either 100 nM of R&D Ab or buffer for 3 minutes, followed by incubation for 3 minutes in 100 nM of testing hybridoma. The difference of hybridoma binding curve with or without pre-binding to R&D antibody was analyzed to determine the epitope.

TREM2 [2] = target: T4, TREM2 (Homo sapiens, UniProt Q9NZC2); test: FACS binning on human TREM2-HEK cells (competition with R&D antibody); assay type: binding; conditions: epitope bin, 100 nM antibody
T4 construct: expressed in transfected cells
Procedure: HEK293 overexpressing human TREM2 (H6) were harvested by 0.05% trypsin and incubated at 37° C. incubator for 2 hours for surface TREM2 recovery. After incubation, cells were washed with 1×PBS and FACS buffer (PBS+0.5% BSA) with human Trustain FcX solution (Biolegend, Cat #422302) was added at a density of 10^6/mL. Cells were seeded at 100,000 cells per well in a 96-well round-bottom and incubated 20 minutes at room temperature. After incubation, anti-TREM2 antibodies (100 nM) were added to the cells and the cells were incubated for 45 minutes on ice. After incubation, rat anti-h/mTREM2-APC antibody (1:100, R&D, Cat # FAB17291A) was added to the cells, and the cells were incubated for 30 minutes on ice. After incubation, cells were washed with FACS buffer three times and resuspended in 10 μL FACS buffer, then analyzed by flow cytometry (BD FACSCanto II, San Jose, Calif.). 20,000 events were obtained for each sample. The ability to compete with R&D antibody was determined by MFI analysis compared to isotype or buffer control wells.
T4 sequence (O43914 22-113 partner, one chain of several): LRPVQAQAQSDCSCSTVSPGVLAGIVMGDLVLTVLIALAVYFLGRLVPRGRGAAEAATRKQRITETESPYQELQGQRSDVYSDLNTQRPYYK

TREM2 [3] = target: T2, TREM2; test: TREM2 pSyk antagonist assay on human macrophages (antibody pre-incubation, then liposomes); assay type: cell-based; conditions: FIGS. 9C-9D, 30 nM antibody
Procedure: as §1
Antibodies diluted in RPMI alone were immediately added to the cells, and allowed to incubate for 30 minutes at 37° C. The antibodies were then removed. Lipid vesicles comprised of 70% DOPC and 30% POPS (made according to the procedure for making vesicles described above) in HBSS were added to the cells and incubated […] at 37° C. The liposome/antibody solution was removed, and 35 μL lysis buffer (Cell Signaling Technologies, CST) was added using the liquid handler. The lysate was then incubated at 4° C. for 30 minutes, then either frozen at −80° C. or immediately carried forward to a pSyk AlphaLISA assay as described above.

T1 sequence (O43914 22-113 partner, one chain of several): as above

Row | Molecule | STREM2 (soluble TREM2 (sTREM2)) | Bin by Octet (hTREM2) | Bin by FACS (TREM2 [2]) | liposome mediated pSyk signaling after antibody pre-incubation (TREM2 [3]) | further results
1 | RS9.F10: anti-TREM2 antibody clone; likely VH SEQ ID NO:6, VL SEQ ID NO:7 (antibody, V domains shown) VH: QVQLQQPGAELVKPGASVKLSCKASGYTFTSYWMHWVKQSPGRGLEWIGRSDPTTGGTNYNEKFKTKATLTVDKPSSTAYMQLSSLTSDDSAVYYCVRTSGTGDYWGQGTSLTVSSAKTTAPSVYPLAPVCGGTTGSSVT VL: DVVMTQTPLSLPVSLGDQASISCRSSQSLVHNNGNTFLHWYLQKPGQSPKLLIYKVSNRFSGVPDRFSGSGSGTDFTLKISRVEAEDLGVYFCSQTTHVPPTFGGGTKLEIKRADAAPTVSIFPPSSEQLTSGGASVVCF | NC |  |  |  | 
2 | 7B10.A2: anti-TREM2 antibody clone; VH SEQ ID NO:306, VL SEQ ID NO:310 (antibody, V domains shown) VH: EVQLQQSGPELVKPGASVKMSCKASGYTFTDYNMHWVKQSHGKSLEWIGYINPNNGGTTYNQKFKGKATLTVNKSSSTAYMELRSLTSEDSAVYYCATYNNHYFDSWGQGTTLTVSS VL: DIQMTQTTSSLSASLGDRVTISCSASQGISNYLNWYQQKPDGTVKLLIYYTSNLHSGVPSRFSGSGSGTDYSLTISNLEPEDIATYYCQQYSNLPYTFGGGTKLEIK |  |  |  |  | effect on lipid ligand activation of TREM2 (in words) (TREM2 [1]; FIG. 9B, human macrophages): synergistic with lipid TREM2 activators; Slope + Liposome (TREM2 [1]; pSyk, 10 nM antibody with 0, EC20, EC50, EC80 PS/PC liposomes, liposome-alone signal subtracted): 5,370
3 | 42E8.H1: anti-TREM2 antibody clone; VH SEQ ID NO:20, VL SEQ ID NO:31 (antibody, V domains shown) VH: DVQLQESGPGLVKPSQSLSLTCTVTGYSITSDYAWNWIRQFPGNKLEWMGYINYSGRTIYNPSLKSRISITRDTSKNHFFLQLISVTTEDTATYYCARWNGNYGFAYWGQGTLVTVSA VL: DVVMTQNPLSLPVSLGDQASISCRSSQSLVHINGNTYLHWYLQKPGQSPKLLIYKVSNRFSGVPDRFSGSGSGTDFTLKISRVEAEDLGVYFCSQTTHALFTFGSGTKLEIK | −− | 1 | 1 |  | TREM2 shedding (in words) (soluble TREM2 (sTREM2); FIG. 4, 18 hours): blocks TREM2 shedding
4 | 26E2.A3: anti-TREM2 antibody clone; VH SEQ ID NO:17, VL SEQ ID NO:28 (antibody, V domains shown) VH: QVHLQQSGSELRSPGSSVKLSCKDFDSEVFPISYMSWIRQKPGHGFEWIGDILPSIGGRIYGVKFEDRATLDADTVSNTAYLELNSLTSEDSAIYYCARKDYGSLAYWGQGTLVTVSA VL: DVVMTQTPLSLPVSLGDQASISCRSSQSLVHINGNTYLQWFLQKPGQSPKLLIYKVSNRFSGVPDRFSGSGSGTAFTLKISRVEAEDLGVYFCSQSTHVPYTFGGGTKLEIK |  |  |  | enhanced | 
5 | 49H11.B1: anti-TREM2 antibody clone; VH SEQ ID NO:21, VL SEQ ID NO:32 (antibody, V domains shown) VH: DVQLQESGPGLVKPSQSLSLTCTVTGYSITSDYAWNWIRQFPGNRLEWMGYISFSGSTSYNPSLKSRISITRDTSKNQFFLQLNSVTTEDTATYYCARWNGNYGFAYWGQGTLVTVSA VL: DVVMTQTPLSLPVSLGDQASISCRSSQSLVHINGNTYLHWYLQKPGQSPKLLIYKVSNRFSGVPDRFSGSGSGTDFTLKISRVEAEDLGVYFCSQSTHVTFTFGSGTKLEIK |  | 1 | 1 |  | 
6 | 26D2.D1: anti-TREM2 antibody clone; VH SEQ ID NO:16, VL SEQ ID NO:27 (antibody, V domains shown) VH: EVQLQQSGPELVKPGASVKMSCKASGYTFTSYVMHWVKQKPGQGLEWIGYINPYTDGTKYNEKFKGKATLTSDKSSSTAYMDLSSLTSEDSAVYYCARGEVRRYALDYWGQGTSVTVSS VL: DIQMTQSSSSFSVSLGDRVTITCKASEDIYNRLAWYQQKPGNAPRLLISGATSLETGVPSRFSGSGSGKDYTLSITSLQTEDVATYYCQQYWSTPWTFGGGTKLEIK | NC | 1-2 | 3 | blocked | 
